In patent US10968255:

Legend:
[1] = molecular target: CH505 TF chimeric SOSIP.III trimer (CH505TFchim.6R.SOSIP.664v4.1) (HIV-1 (CH505 gp120 with BG505 gp41, chimera)); test: negative stain EM
[2] = molecular target: BG505 SOSIP.664 gp140 trimer (HIV-1); test: negative stain EM
[3] = molecular target: CH505 transmitted/founder (TF) gp120 Env (HIV-1); test: SPR, antibody captured, gp120 injected
[4] = molecular target: CH505 transmitted/founder (TF) gp120 Env (HIV-1); test: competition ELISA, competitor biotinylated CH240
[5] = molecular target: CH505 transmitted/founder (TF) gp120 Env (HIV-1); test: competition ELISA, competitor biotinylated CH241
[6] = molecular target: B41 SOSIP.664 gp140 trimer (HIV-1); test: negative stain EM
[7] = molecular target: CH505 TF loop D mutant M8 Env (pseudovirus) (HIV-1); test: cell-based or functional assay
[8] = molecular target: CH505 TF loop D mutant M7 Env (pseudovirus) (HIV-1); test: cell-based or functional assay
[9] = molecular target: CH505 TF loop D mutant M20 Env (pseudovirus) (HIV-1); test: cell-based or functional assay
[10] = molecular target: CH505 TF loop D mutant M9 Env (pseudovirus) (HIV-1); test: cell-based or functional assay
[11] = molecular target: CH505 transmitted/founder (TF) gp120 Env (HIV-1); test: competition ELISA, blocking of CH106 binding to CH505 TF gp120
[12] = molecular target: CH505 transmitted/founder (TF) gp120 Env (HIV-1); test: competition ELISA, blocking of sCD4 binding to CH505 TF gp120

CH103 Fab showed a binding ratio (CH103 to gp140) (CH103 per gp140) [1] of 1, a stoichiometry (Fabs per trimer) (Fabs per trimer) [1] of 3 and a stoichiometry (Fabs per trimer) (Fabs per trimer) [2] of 3.
Work on “CH103 lineage unmutated common ancestor (UCA) (antibody)” yielded a Kd [3] of 227 nM and a kon [3] of 37000 M⁻¹ s⁻¹.
Substance CH106 (antibody) has an IC50 [4] of 2.3 µg/mL and an IC50 [5] of 14.3 µg/mL.
For CH235 Fab, the stoichiometry (Fabs per trimer) (Fabs per trimer) [2] was 1 and the stoichiometry (Fabs per trimer) (Fabs per trimer) [6] was 2.
Work on CH235.9 (antibody) yielded a neutralization IC50, TZM-bl pseudovirus assay [7] of 0.66 µg/mL.
CH235.9 Fab was tested, and the stoichiometry (Fabs per trimer) (Fabs per trimer) [2] was 3 and the stoichiometry (Fabs per trimer) (Fabs per trimer) [6] was 3.
With CH235.9 N30T (antibody) the neutralization IC50, TZM-bl pseudovirus assay [8] was > 44 µg/mL, the neutralization IC50, TZM-bl pseudovirus assay [9] was > 44 µg/mL and the neutralization IC50, TZM-bl pseudovirus assay [10] was > 44 µg/mL. The fold increase of the neutralization IC50 against CH235.9 [7] was 37 fold and the neutralization IC50, TZM-bl pseudovirus assay [7] was 24.3 µg/mL.
CH235.12 Fab gave a stoichiometry (Fabs per trimer) (Fabs per trimer) [2] of 3 and a stoichiometry (Fabs per trimer) (Fabs per trimer) [6] of 3.
Substance CH241 (antibody) has an IC50 [11] of 2.6 µg/mL, an IC50 [12] of 1.5 µg/mL and a Kd [3] of 0.7 nM. For the same substance, the koff [3] was 0.00033 s⁻¹.
